In patent US20060115839A1:

Target: T1, histone H3 peptide with dimethylated Lys79 (isothermal titration calorimetry)
T1 sequence (peptide, dimethylated Lys79): IAQDFKTDLR
Test: isothermal titration calorimetry (data not shown)

53BP1 tandem tudor domain (isothermal titration calorimetry), sequence (P70399 1480-1621 limits assumed): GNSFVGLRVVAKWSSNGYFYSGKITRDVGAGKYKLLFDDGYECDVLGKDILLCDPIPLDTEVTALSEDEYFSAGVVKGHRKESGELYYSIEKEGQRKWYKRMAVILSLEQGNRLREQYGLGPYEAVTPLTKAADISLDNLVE

- Kd: < 1 µM
Substance: 53BP1 tandem tudor domain (isothermal titration calorimetry) (from UniProt P70399 1480-1621)
